Source: patent US20210371526A1 (AMPSOURCE BIOPHARMA SHANGHAI, published 2021)

Key:
[1] = target: T1, CD20 on Raji cells (human, UniProt P11836 1-297); assay: flow cytometry on CD20-positive Raji cells
T1 construct: whole, on cells; also called CD20-positive tumor cells; Raji-luc
T1 sequence (looked up): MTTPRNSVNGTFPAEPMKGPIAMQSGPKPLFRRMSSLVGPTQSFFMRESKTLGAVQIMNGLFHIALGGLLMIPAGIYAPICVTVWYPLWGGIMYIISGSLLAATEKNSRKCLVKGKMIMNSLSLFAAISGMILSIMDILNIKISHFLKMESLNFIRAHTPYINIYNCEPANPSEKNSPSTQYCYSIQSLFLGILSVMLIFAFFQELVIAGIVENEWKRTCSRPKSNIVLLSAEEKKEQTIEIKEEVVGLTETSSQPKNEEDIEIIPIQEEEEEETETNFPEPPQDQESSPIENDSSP

[2] = target: T1, CD20 on Raji cells; assay: cell-based or functional assay
[3] = target: T2, CD3 on cynomolgus monkey T cells (CIK cells, primary T cells) (cynomolgus monkey, UniProt Q95LI5 22-198); assay: flow cytometry on cynomolgus monkey primary T cells
T2 construct: whole, on cells; also called cynomolgus monkey CIK cell membrane CD3
T2 sequence (Q95LI5 22-198): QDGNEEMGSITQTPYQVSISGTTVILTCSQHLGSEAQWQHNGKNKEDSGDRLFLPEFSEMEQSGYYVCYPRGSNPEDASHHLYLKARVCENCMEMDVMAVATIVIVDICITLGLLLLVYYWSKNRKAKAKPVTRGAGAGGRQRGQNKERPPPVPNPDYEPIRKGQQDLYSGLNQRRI

[4] = target: T2, CD3 on cynomolgus monkey T cells (CIK …); assay: flow cytometry on cynomolgus monkey CIK/T cells
[5] = target: T3, CD19 on tumor cells (Raji, Raji-Luc, NALM6, Reh) (human, UniProt P15391 20-556); assay: cell-based or functional assay
T3 sequence (looked up): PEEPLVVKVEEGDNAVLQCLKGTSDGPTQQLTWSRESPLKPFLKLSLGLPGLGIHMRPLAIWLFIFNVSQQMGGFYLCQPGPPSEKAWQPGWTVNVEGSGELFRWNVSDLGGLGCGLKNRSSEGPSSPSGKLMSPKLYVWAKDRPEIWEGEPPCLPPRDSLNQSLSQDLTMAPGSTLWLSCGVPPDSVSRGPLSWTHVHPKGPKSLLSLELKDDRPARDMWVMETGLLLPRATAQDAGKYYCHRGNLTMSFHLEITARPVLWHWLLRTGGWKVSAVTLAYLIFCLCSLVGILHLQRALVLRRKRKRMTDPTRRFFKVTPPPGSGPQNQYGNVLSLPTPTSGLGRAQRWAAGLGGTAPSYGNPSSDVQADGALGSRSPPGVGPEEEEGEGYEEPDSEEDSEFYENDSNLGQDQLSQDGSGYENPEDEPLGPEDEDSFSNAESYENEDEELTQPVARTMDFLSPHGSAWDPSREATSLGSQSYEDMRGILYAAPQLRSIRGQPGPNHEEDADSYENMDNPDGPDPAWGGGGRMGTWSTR

[6] = target: T3, CD19 on tumor cells (Raji, Raji-Luc, …); assay: cell-based or functional assay; remark: listed apart in the source
[7] = target: T3, CD19 on tumor cells (Raji, Raji-Luc, …); assay: FACS on CD19-positive Raji cells, AF647 goat anti-human IgG [left panel]
[8] = target: T3, CD19 on tumor cells (Raji, Raji-Luc, …); assay: cell-based or functional assay; remark: listed apart in the source
[9] = target: T3, CD19 on tumor cells (Raji, Raji-Luc, …); assay: cell-based or functional assay; remark: listed apart in the source
[10] = target: T3, CD19 on tumor cells (Raji, Raji-Luc, …); assay: flow cytometry on CD19-positive Raji cells

B1: Bispecific antibody AB2K (Anti-CD20×CD3, scFv1-scFv2-Fc) (bispecific antibody)
chain: QVQLQQPGAELVKPGASVKMSCKASGYTFTSYNMHWVKQTPGRGLEWIGAIYPGNGDTSYNQKFKGKATLTADKSSSTAYMQLSSLTSEDSAVYYCARSTYYGGDWYFNVWGAGTTVTVSAGGGGSGGGGSGGGGSQIVLSQSPAILSASPGEKVTMTCRASSSVSYIHWFQQKPGSSPKPWIYATSNLASGVPVRFSGSGSGTSYSLTISRVEAEDAATYYCQQWTSNPPTFGGGTKLEIKGGGGGGSGGGGSGGGGSSSSSKAPPPSEVQLLESGGGLVQPGGSLKLSCAASGFTFNTYAMNWVRQAPGKGLEWVARIRSKYNNYATYYADSVKDRFTISRDDSKNTAYLQMNNLKTEDTAVYYCVRHGNFGNSYVSWFAYWGQGTLVTVSSGGGGSGGGGSGGGGSELVVTQEPSLTVSPGGTVTLTCRSSTGAVTTSNYANWVQQKPGQAPRGLIGGTNKRAPGTPARFSGSLLGGKAALTLSGVQPEDEAEYYCALWYSNLWVFGGGTKLTVLDKTHTCPPCPAPEAAGGPSVFLFPPKPKDQLMISRTPEVTCVVVDVSHEDPEVKFNWYVDGVEVHNAKTKPREEQYASTYRVVSVLTVLHQDWLNGKEYKCKVSNKALPASIEKTISKAKGQPREPQVYTLPPSRDELTKNQVSLTCLVKGFYPSDIAVEWESNGQPENNYKTTPPVLDSDGSFFLYSKLTVDKSRWQQGNVFSCSVLHEALHNHYTQKSLSLSPG
[1]
  EC50: ~70 nM
[2]
  EC50 of CIK-mediated killing of Raji-luc cells (luciferase): 0.0428 µg/mL
  EC50 of activation of Jurkat NFATRE Luc reporter cells in the presence of CD20-positive Raji cells: 0.201 µg/mL

B2: Bispecific antibody AB11K (Anti-Mucin1×CD3, scFv1-scFv2-Fc) (bispecific antibody)
chain: EVQLVESGGGLVQPGGSMRLSCVASGFPFSNYWMNWVRQAPGKGLEWVGEIRLKSNNYTTHYAESVKGRFTISRDDSKNSLYLQMNSLKTEDTAVYYCTRHYYFDYWGQGTLVTVSSGGGGSGGGGSGGGGSDIVMTQSPLSNPVTPGEPASISCRSSKSLLHSNGITYFFWYLQKPGQSPQLLIYQMSNLASGVPDRFSGSGSGTDFTLRISRVEAEDVGVYYCAQNLELPPTFGQGTKVEIKGGGGGGSGGGGSGGGGSSSSSKAPPPSEVQLLESGGGLVQPGGSLKLSCAASGFTFNTYAMNWVRQAPGKGLEWVARIRSKYNNYATYYADSVKDRFTISRDDSKNTAYLQMNNLKTEDTAVYYCVRHGNFGNSYVSWFAYWGQGTLVTVSSGGGGSGGGGSGGGGSELVVTQEPSLTVSPGGTVTLTCRSSTGAVTTSNYANWVQQKPGQAPRGLIGGTNKRAPGTPARFSGSLLGGKAALTLSGVQPEDEAEYYCALWYSNLWVFGGGTKLTVLDKTHTCPPCPAPEAAGGPSVFLFPPKPKDQLMISRTPEVTCVVVDVSHEDPEVKFNWYVDGVEVHNAKTKPREEQYASTYRVVSVLTVLHQDWLNGKEYKCKVSNKALPASIEKTISKAKGQPREPQVYTLPPSRDELTKNQVSLTCLVKGFYPSDIAVEWESNGQPENNYKTTPPVLDSDGSFFLYSKLTVDKSRWQQGNVFSCSVLHEALHNHYTQKSLSLSPG
[3]
  EC50: 10 nM

B3: Bispecific antibody AB1K2 (Anti-CD19×CD3, scFv1-scFv2-Fc) (bispecific antibody)
chain: QVQLQESGPGLVKPSQTLSLTCTVSGGSISTSGMGVGWIRQHPGKGLEWIGHIWWDDDKRYNPALKSRVTISVDTSKNQFSLKLSSVTAADTAVYYCARMELWSYYFDYWGQGTLVTVSSGGGGSGGGGSGGGGSEIVLTQSPATLSLSPGERATLSCSASSSVSYMHWYQQKPGQAPRLLIYDTSKLASGIPARFSGSGSGTDFTLTISSLEPEDVAVYYCFQGSVYPFTFGQGTKLEIKGGGGGGSGGGGSGGGGSSSSSKAPPPSEVQLLESGGGLVQPGGSLKLSCAASGFTFNTYAMNWVRQAPGKGLEWVARIRSKYNNYATYYADSVKDRFTISRDDSKNTAYLQMNNLKTEDTAVYYCVRHGNFGNSYVSWFAYWGQGTLVTVSSGGGGSGGGGSGGGGSELVVTQEPSLTVSPGGTVTLTCRSSTGAVTTSNYANWVQQKPGQAPRGLIGGTNKRAPGTPARFSGSLLGGKAALTLSGVQPEDEAEYYCALWYSNLWVFGGGTKLTVLDKTHTCPPCPAPEAAGGPSVFLFPPKPKDQLMISRTPEVTCVVVDVSHEDPEVKFNWYVDGVEVHNAKTKPREEQYASTYRVVSVLTVLHQDWLNGKEYKCKVSNKALPASIEKTISKAKGQPREPQVYTLPPSRDELTKNQVSLTCLVKGFYPSDIAVEWESNGQPENNYKTTPPVLDSDGSFFLYSKLTVDKSRWQQGNVFSCSVLHEALHNHYTQKSLSLSPG
[4]
  EC50: ~5.5 nM
[5]
  EC50 of CIK-mediated killing of Reh cells: 0.00171 nM
[6]
  EC50 of PBMC-mediated killing of Raji-LUC cells: 0.00123 nM
  EC50 of PBMC-mediated killing of Raji-LUC cells, second row: 0.00125 nM
[7]
  EC50 (read off the curve): ~1 nM
[8]
  EC50 of activation of Jurkat T cells with NFAT RE reporter in the presence of Raji target cells: 1.08 nM
[9]
  EC50 of CIK-mediated killing of Raji-LUC cells: 0.000699 nM
  EC50 of CIK-mediated killing of Raji-LUC cells, second row: 0.000202 nM
[10]
  EC50: 1.39 nM
